{
  "source": "patent US10976314B2",
  "about": "“Device, non-transitory computer-readable storage medium, and method for determining type of target peptide” (SYSMEX CORPORATION, priority 2014, dated 2021)",
  "molecules": {"B1": {"name": "Lysozyme (protein, listed as Homo sapiens)", "chain": "KVYGRCELAAAMKRLGLDNFRGYSLGNWVCAAKFESNFNTHATNRNTDGSTDYGILQINSRWWCNDGRTPGSRNLCNIPCSALLSSDTIASVNCAKKIVSDGNGMNAWVAWRKRCKGTDVNAWTRGCRL"}},
  "key": {"[1]": {"details": "cited from earlier work; for Isoelectric point pI: Table 1; for Isoelectric point: Table 5"}, "[2]": {"target": "human serum albumin (HSA) (Homo sapiens, UniProt P02768)", "details": "for b value of Equation (I) (dissociation mode: b<0.241 single, b≥0.241 multiple) / Δλ (maximum layer thickness change amount, second information): peptide concentration per Table 5"}},
  "note": "Read-outs that look alike come from different tables or passages of the source. Peptide text beside a SMILES is read from it.",
  "data": [
    {"molecule": "amyloid β42 peptide [AB42]", "values": [
      {"measurement": "Isoelectric point pI", "setting": "[1]", "value": 5.3},
      {"measurement": "Isoelectric point", "setting": "[1]", "value": 5.3}
    ]},
    {"molecule": "dynorphin A (YGGFLRRIRPKLK; listed as Homo sapiens)", "values": [
      {"measurement": "Koff (dissociation rate constant, first information)", "setting": "[2]; HSA sensor chip, peptide concentration during measurement per Table 5 (1-1000 μM), 0.1 M sodium phosphate buffer pH 6.9", "value": 0.00617, "unit": "s⁻¹"},
      {"measurement": "Isoelectric point pI", "setting": "[1]", "value": 11.7},
      {"measurement": "Isoelectric point", "setting": "[1]", "value": 11.7}
    ]},
    {"molecule": "glucagon", "values": [
      {"measurement": "Isoelectric point pI", "setting": "[1]", "value": 6.8}
    ]},
    {"molecule": "arginine decapeptide [(Arg) 10]", "values": [
      {"measurement": "Isoelectric point pI", "setting": "[1]", "value": 13}
    ]},
    {"molecule": "(His) 3: HHH", "values": [
      {"measurement": "b value of Equation (I) (dissociation mode: b<0.241 single, b≥0.241 multiple)", "setting": "[2]; HSA sensor chip", "value": 0.344},
      {"measurement": "Δλ (maximum layer thickness change amount, second information)", "setting": "[2]; HSA sensor chip", "value": 0.027, "unit": "nm"},
      {"measurement": "Koff (dissociation rate constant, first information)", "setting": "[2]; pH 6.9", "value": 0.00257, "unit": "s⁻¹"},
      {"measurement": "Isoelectric point", "setting": "[1]", "value": 7}
    ]},
    {"molecule": "histidine eicosa peptide (HHHHHHHHHHHHHHHHHHHH; Synthetic His eicosapeptide) [(His) 20]", "values": [
      {"measurement": "Isoelectric point pI", "setting": "[1]", "value": 7.6}
    ]},
    {"molecule": "Lys-decapeptide (KKKKKKKKKK; Synthetic Lys decapeptide) [(Lys) 10]", "values": [
      {"measurement": "b value of Equation (I) (dissociation mode: b<0.241 single, b≥0.241 multiple)", "setting": "[2]; HSA sensor chip", "value": 0.669},
      {"measurement": "Δλ (maximum layer thickness change amount, second information)", "setting": "[2]; HSA sensor chip", "value": 0.045, "unit": "nm"},
      {"measurement": "Koff (dissociation rate constant, first information)", "setting": "[2]; pH 6.9", "value": 0.0002, "unit": "s⁻¹"},
      {"measurement": "Isoelectric point", "setting": "[1]", "value": 11}
    ]},
    {"molecule": "ACTH partial peptide at the 1-24 positions [ACTH24]", "values": [
      {"measurement": "Isoelectric point pI", "setting": "[1]", "value": 10.6}
    ]},
    {"molecule": "His-decapeptide (HHHHHHHHHH; Synthetic His decapeptide) [(His) 10]", "values": [
      {"measurement": "Koff (dissociation rate constant, first information)", "setting": "[2]; pH 6.9", "value": 0.00073, "unit": "s⁻¹"},
      {"measurement": "Isoelectric point", "setting": "[1]", "value": 7.4}
    ]},
    {"molecule": "fibrinogen α (DEAGSEADHEGTHSTKRGHAKSRPV; listed as Homo sapiens)", "values": [
      {"measurement": "Isoelectric point pI", "setting": "[1]", "value": 6.3}
    ]},
    {"molecule": "ACTH15: SEQ ID NO: 11, YSMEHFRWGKPVGKK (listed as Homo sapiens)", "values": [
      {"measurement": "Koff (dissociation rate constant, first information)", "setting": "[2]; pH 6.9", "value": 0.01147, "unit": "s⁻¹"},
      {"measurement": "Isoelectric point pI", "setting": "[1]", "value": 10},
      {"measurement": "Isoelectric point", "setting": "[1]", "value": 10}
    ]},
    {"molecule": "IS 13mer: the 237 to 249th fragments of the amino acid sequence of HSA; SEQ ID NO: 21, AWAVARLSQRFPK (listed as Homo sapiens)", "values": [
      {"measurement": "b value of Equation (I) (dissociation mode: b<0.241 single, b≥0.241 multiple)", "setting": "[2]; HSA sensor chip", "value": 0.756},
      {"measurement": "Δλ (maximum layer thickness change amount, second information)", "setting": "[2]; HSA sensor chip", "value": 0.061, "unit": "nm"},
      {"measurement": "Koff (dissociation rate constant, first information)", "setting": "[2]; pH 6.9", "value": 0.01708, "unit": "s⁻¹"},
      {"measurement": "Isoelectric point", "setting": "[1]", "value": 12}
    ]},
    {"molecule": "ELN 11mer: the 548 to 558th fragments of the amino acid sequence of elastin; SEQ ID NO: 20, GVPGLGVGAGV (listed as Homo sapiens)", "values": [
      {"measurement": "b value of Equation (I) (dissociation mode: b<0.241 single, b≥0.241 multiple)", "setting": "[2]; HSA sensor chip", "value": 0},
      {"measurement": "Δλ (maximum layer thickness change amount, second information)", "setting": "[2]; HSA sensor chip", "value": 0.043, "unit": "nm"},
      {"measurement": "Koff (dissociation rate constant, first information)", "setting": "[2]; pH 6.9", "value": 0.00016, "unit": "s⁻¹"},
      {"measurement": "Isoelectric point", "setting": "[1]", "value": 5.5}
    ]},
    {"molecule": "inter-α-trypsin inhibitor heavy chain 4 (GESRNRNVHSGSTFFKYYLQGAKIPKPEASFS; listed as Homo sapiens) [ITIH4]", "values": [
      {"measurement": "Isoelectric point pI", "setting": "[1]", "value": 9.8}
    ]},
    {"molecule": "Amyloid β40 peptide [AB40]", "values": [
      {"measurement": "Isoelectric point pI", "setting": "[1]", "value": 5.3},
      {"measurement": "Isoelectric point", "setting": "[1]", "value": 5.3}
    ]},
    {"molecule": "NC(N)=NCCC[C@H](NC(=O)[C@H](Cc1ccccc1)NC(=O)[C@@H]1CCCN1C(=O)[C@H](CO)NC(=O)[C@H](Cc1ccccc1)NC(=O)CNC(=O)[C@@H]1CCCN1C(=O)[C@@H]1CCCN1C(=O)[C@@H](N)CCCN=C(N)N)C(=O)O", "note": "[Bradykinin] (H-RPPGFSPFR-OH)", "values": [
      {"measurement": "Koff (dissociation rate constant, first information)", "setting": "[2]; pH 6.9", "value": 0.01721, "unit": "s⁻¹"}
    ]},
    {"molecule": "ACTH partial peptide at the 1-41 positions (GPSYSMEHFRWGKPVGKKRRPVKVYPNGAEDESAEAFPLEF; listed as Homo sapiens) [ACTH41]", "values": [
      {"measurement": "Isoelectric point pI", "setting": "[1]", "value": 8.3}
    ]},
    {"molecule": "ACTH partial peptide at the 1-39 positions (SYSMEHFRWGKPVGKKRRPVKVYPNAGENESAEAFPLEF; listed as Homo sapiens) [ACTH39]", "values": [
      {"measurement": "dissociation mode (third information)", "setting": "[2]; HSA sensor chip, peptide map FIG. 6, peptide 2 μM", "value": "multiple dissociation mode"},
      {"measurement": "Isoelectric point pI", "setting": "[1]", "value": 9.3}
    ]},
    {"molecule": "kininogen (HNLGHGHKHERDQGHGHQR; listed as Homo sapiens)", "values": [
      {"measurement": "b value of Equation (I) (dissociation mode: b<0.241 single, b≥0.241 multiple)", "setting": "[2]; HSA sensor chip", "value": 1.093},
      {"measurement": "Δλ (maximum layer thickness change amount, second information)", "setting": "[2]; HSA sensor chip", "value": 0.082, "unit": "nm"},
      {"measurement": "Koff (dissociation rate constant, first information)", "setting": "[2]; pH 6.9", "value": 0.00493, "unit": "s⁻¹"},
      {"measurement": "Isoelectric point pI", "setting": "[1]", "value": 8.8},
      {"measurement": "Isoelectric point", "setting": "[1]", "value": 8.8}
    ]},
    {"molecule": "brain natriuretic peptide [BNP]", "values": [
      {"measurement": "Isoelectric point pI", "setting": "[1]", "value": 11}
    ]},
    {"molecule": "B1", "values": [
      {"measurement": "b value of Equation (I) (dissociation mode: b<0.241 single, b≥0.241 multiple)", "setting": "[2]; HSA sensor chip", "value": 0.278},
      {"measurement": "Δλ (maximum layer thickness change amount, second information)", "setting": "[2]; HSA sensor chip", "value": 0.12, "unit": "nm"},
      {"measurement": "Koff (dissociation rate constant, first information)", "setting": "[2]; pH 6.9", "value": 0.0066, "unit": "s⁻¹"},
      {"measurement": "Isoelectric point", "setting": "[1]", "value": 9.4}
    ]}
  ]
}
